B1: HC3LC3 (antibody, human IgG1, kappa, V domains shown)
VH: EVQLVESGGGLVQPGGSLKLSCAASGFTFSNAVMNWVRQAPGKGLEWVGRIRTKPNNYATFYADSVKGRFTFSRDDSKNTAYLQMNILKTEDTAMYYCTAWTTEGIYWGQGTTVTVSS
VL: DIQMTQSPSSLSASVGDRVTITCKSSQSLLYSGNQKNYLAWYQQKPGQSPKLLIYWASTRQSGVPDRFSGSGSGTDFTLTISSLQAEDFATYYCQQYYDTPWTFGGGTKVEIKR
notes: Humanized variant; human IgG1 / kappa constant domains
B2: HC3LC4 (antibody, human IgG1, kappa, V domains shown)
VH: EVQLVESGGGLVQPGGSLKLSCAASGFTFSNAVMNWVRQAPGKGLEWVGRIRTKPNNYATFYADSVKGRFTFSRDDSKNTAYLQMNILKTEDTAMYYCTAWTTEGIYWGQGTTVTVSS
VL: DIQMTQSPSSLSASVGDRVTITCKSSQSLLYSGNQKNYLAWYQQKPGQSPKLLIYWASTRQSGVPSRFSGSGSGTDFTLTISSLQPEDLAIYYCQQYYDTPWTFGGGTKLELKR
notes: as for B1
B3: HC2LC3 (antibody, human IgG1, kappa, V domains shown)
VH: AVQLVESGGGLVQPGGSLKISCAASGFTFSNAVMNWVRQASGKGLEWVGRIRTKPNNYATFYADSVKGRFTISRDDSKNTAYLQMNSLKTEDTAMYYCTAWTTEGIYWGQGTLVTVSS
VL: DIQMTQSPSSLSASVGDRVTITCKSSQSLLYSGNQKNYLAWYQQKPGQSPKLLIYWASTRQSGVPDRFSGSGSGTDFTLTISSLQAEDFATYYCQQYYDTPWTFGGGTKVEIKR
notes: as for B1
B4: HC1LC5 (antibody, human IgG1, kappa, V domains shown)
VH: QVQLVESGGGVVQPGGSLRLSCAASGFTFSNAVMNWVRQAPGKGLEWVARIRTKPNNYATFYADSVKGRFTFSRDNSKTMLYLQMNSLRAEDTAVYYCTAWTTEGIYWGQGTLVTVSS
VL: DIVMTQSPSSLAVSAGERATINCKSSQSLLYSGNQKNYLAWYQQKPGQSPKLLIYWASTRQSGVPDRFIGSGSGTDFTLTISSLQAEDVAIYYCQQYYDTPWTFGGGTKLELKR
notes: as for B1
B5: HC4LC2 (antibody, human IgG1, kappa, V domains shown)
VH: EVQLVESGGGLVKPGGSLRLSCAASGFTFSNAVMNWVRQAPGKGLEWVARIRTKPNNYATFYADSVKGRFTFSRDDSKNTLYLQMNSLKTEDTAVYYCTAWTTEGIYWGQGTTVTVSS
VL: DIVMTQSPSSLAVSLGETATINCKSSQSLLYSGNQKNYLAWYQQKPGQPPKLLIYWASTRQSGVPDRFTGSGAGTDFTLTISSVQAEDLAIYYCQQYYDTPWTFGGGTKVEIKR
notes: as for B1
B6: HC1LC2 (antibody, human IgG1, kappa, V domains shown)
VH: QVQLVESGGGVVQPGGSLRLSCAASGFTFSNAVMNWVRQAPGKGLEWVARIRTKPNNYATFYADSVKGRFTFSRDNSKTMLYLQMNSLRAEDTAVYYCTAWTTEGIYWGQGTLVTVSS
VL: DIVMTQSPSSLAVSLGETATINCKSSQSLLYSGNQKNYLAWYQQKPGQPPKLLIYWASTRQSGVPDRFTGSGAGTDFTLTISSVQAEDLAIYYCQQYYDTPWTFGGGTKVEIKR
notes: as for B1
B7: HC1LC1 (antibody, human IgG1, kappa, V domains shown)
VH: QVQLVESGGGVVQPGGSLRLSCAASGFTFSNAVMNWVRQAPGKGLEWVARIRTKPNNYATFYADSVKGRFTFSRDNSKTMLYLQMNSLRAEDTAVYYCTAWTTEGIYWGQGTLVTVSS
VL: DIVMTQSPDSLAVSAGETVTINCKSSQSLLYSGNQKNYLAWYQQKPGQSPKLLIYWASTRQSGVPDRFSGSGSGTDFTLTISSVQAEDVAVYYCQQYYDTPWTFGGGTKVEIKR
notes: as for B1
B8: HC1LC4 (antibody, human IgG1, kappa, V domains shown)
VH: QVQLVESGGGVVQPGGSLRLSCAASGFTFSNAVMNWVRQAPGKGLEWVARIRTKPNNYATFYADSVKGRFTFSRDNSKTMLYLQMNSLRAEDTAVYYCTAWTTEGIYWGQGTLVTVSS
VL: DIQMTQSPSSLSASVGDRVTITCKSSQSLLYSGNQKNYLAWYQQKPGQSPKLLIYWASTRQSGVPSRFSGSGSGTDFTLTISSLQPEDLAIYYCQQYYDTPWTFGGGTKLELKR
notes: as for B1
B9: HC2LC2 (antibody, human IgG1, kappa, V domains shown)
VH: AVQLVESGGGLVQPGGSLKISCAASGFTFSNAVMNWVRQASGKGLEWVGRIRTKPNNYATFYADSVKGRFTISRDDSKNTAYLQMNSLKTEDTAMYYCTAWTTEGIYWGQGTLVTVSS
VL: DIVMTQSPSSLAVSLGETATINCKSSQSLLYSGNQKNYLAWYQQKPGQPPKLLIYWASTRQSGVPDRFTGSGAGTDFTLTISSVQAEDLAIYYCQQYYDTPWTFGGGTKVEIKR
notes: as for B1
B10: HC3LC2 (antibody, human IgG1, kappa, V domains shown)
VH: EVQLVESGGGLVQPGGSLKLSCAASGFTFSNAVMNWVRQAPGKGLEWVGRIRTKPNNYATFYADSVKGRFTFSRDDSKNTAYLQMNILKTEDTAMYYCTAWTTEGIYWGQGTTVTVSS
VL: DIVMTQSPSSLAVSLGETATINCKSSQSLLYSGNQKNYLAWYQQKPGQPPKLLIYWASTRQSGVPDRFTGSGAGTDFTLTISSVQAEDLAIYYCQQYYDTPWTFGGGTKVEIKR
notes: as for B1
B11: HC4LC4 (antibody, human IgG1, kappa, V domains shown)
VH: EVQLVESGGGLVKPGGSLRLSCAASGFTFSNAVMNWVRQAPGKGLEWVARIRTKPNNYATFYADSVKGRFTFSRDDSKNTLYLQMNSLKTEDTAVYYCTAWTTEGIYWGQGTTVTVSS
VL: DIQMTQSPSSLSASVGDRVTITCKSSQSLLYSGNQKNYLAWYQQKPGQSPKLLIYWASTRQSGVPSRFSGSGSGTDFTLTISSLQPEDLAIYYCQQYYDTPWTFGGGTKLELKR
notes: as for B1
B12: HC4LC3 (antibody, human IgG1, kappa, V domains shown)
VH: EVQLVESGGGLVKPGGSLRLSCAASGFTFSNAVMNWVRQAPGKGLEWVARIRTKPNNYATFYADSVKGRFTFSRDDSKNTLYLQMNSLKTEDTAVYYCTAWTTEGIYWGQGTTVTVSS
VL: DIQMTQSPSSLSASVGDRVTITCKSSQSLLYSGNQKNYLAWYQQKPGQSPKLLIYWASTRQSGVPDRFSGSGSGTDFTLTISSLQAEDFATYYCQQYYDTPWTFGGGTKVEIKR
notes: as for B1
B13: HC1LC3 (antibody, human IgG1, kappa, V domains shown)
VH: QVQLVESGGGVVQPGGSLRLSCAASGFTFSNAVMNWVRQAPGKGLEWVARIRTKPNNYATFYADSVKGRFTFSRDNSKTMLYLQMNSLRAEDTAVYYCTAWTTEGIYWGQGTLVTVSS
VL: DIQMTQSPSSLSASVGDRVTITCKSSQSLLYSGNQKNYLAWYQQKPGQSPKLLIYWASTRQSGVPDRFSGSGSGTDFTLTISSLQAEDFATYYCQQYYDTPWTFGGGTKVEIKR
notes: as for B1
B14: HC3LC5 (antibody, human IgG1, kappa, V domains shown)
VH: EVQLVESGGGLVQPGGSLKLSCAASGFTFSNAVMNWVRQAPGKGLEWVGRIRTKPNNYATFYADSVKGRFTFSRDDSKNTAYLQMNILKTEDTAMYYCTAWTTEGIYWGQGTTVTVSS
VL: DIVMTQSPSSLAVSAGERATINCKSSQSLLYSGNQKNYLAWYQQKPGQSPKLLIYWASTRQSGVPDRFIGSGSGTDFTLTISSLQAEDVAIYYCQQYYDTPWTFGGGTKLELKR
notes: as for B1
B15: HC4LC5 (antibody, human IgG1, kappa, V domains shown)
VH: EVQLVESGGGLVKPGGSLRLSCAASGFTFSNAVMNWVRQAPGKGLEWVARIRTKPNNYATFYADSVKGRFTFSRDDSKNTLYLQMNSLKTEDTAVYYCTAWTTEGIYWGQGTTVTVSS
VL: DIVMTQSPSSLAVSAGERATINCKSSQSLLYSGNQKNYLAWYQQKPGQSPKLLIYWASTRQSGVPDRFIGSGSGTDFTLTISSLQAEDVAIYYCQQYYDTPWTFGGGTKLELKR
notes: as for B1
B16: HC2LC5 (antibody, human IgG1, kappa, V domains shown)
VH: AVQLVESGGGLVQPGGSLKISCAASGFTFSNAVMNWVRQASGKGLEWVGRIRTKPNNYATFYADSVKGRFTISRDDSKNTAYLQMNSLKTEDTAMYYCTAWTTEGIYWGQGTLVTVSS
VL: DIVMTQSPSSLAVSAGERATINCKSSQSLLYSGNQKNYLAWYQQKPGQSPKLLIYWASTRQSGVPDRFIGSGSGTDFTLTISSLQAEDVAIYYCQQYYDTPWTFGGGTKLELKR
notes: as for B1
B17: HC2LC1 (antibody, human IgG1, kappa, V domains shown)
VH: AVQLVESGGGLVQPGGSLKISCAASGFTFSNAVMNWVRQASGKGLEWVGRIRTKPNNYATFYADSVKGRFTISRDDSKNTAYLQMNSLKTEDTAMYYCTAWTTEGIYWGQGTLVTVSS
VL: DIVMTQSPDSLAVSAGETVTINCKSSQSLLYSGNQKNYLAWYQQKPGQSPKLLIYWASTRQSGVPDRFSGSGSGTDFTLTISSVQAEDVAVYYCQQYYDTPWTFGGGTKVEIKR
notes: as for B1
B18: HC5LC4 (antibody, human IgG1, kappa, V domains shown)
VH: EVQLVESGGGLVQPGGSLKLSCAASGFTFSNAVMNWVRQASGKGLEWVARIRTKPNNYATFYADSVKGRFTFSRDDSKNTAYLQMNSLKTEDTAMYYCTAWTTEGIYWGQGTLVTVSS
VL: DIQMTQSPSSLSASVGDRVTITCKSSQSLLYSGNQKNYLAWYQQKPGQSPKLLIYWASTRQSGVPSRFSGSGSGTDFTLTISSLQPEDLAIYYCQQYYDTPWTFGGGTKLELKR
notes: as for B1
B19: HC3LC1 (antibody, human IgG1, kappa, V domains shown)
VH: EVQLVESGGGLVQPGGSLKLSCAASGFTFSNAVMNWVRQAPGKGLEWVGRIRTKPNNYATFYADSVKGRFTFSRDDSKNTAYLQMNILKTEDTAMYYCTAWTTEGIYWGQGTTVTVSS
VL: DIVMTQSPDSLAVSAGETVTINCKSSQSLLYSGNQKNYLAWYQQKPGQSPKLLIYWASTRQSGVPDRFSGSGSGTDFTLTISSVQAEDVAVYYCQQYYDTPWTFGGGTKVEIKR
notes: as for B1

Each binder was assayed against T1, Recombinant human CXCL16 (rhCXCL16) protein (human, UniProt Q9H2A7 30-118, limits assumed) (assay: BLI (ForteBio), antibody captured on biosensor, rhCXCL16 in solution).
T1 construct: Bought recombinant protein (976-CX, R&D systems); also called CXCL16 antigen; 976-CX (R&D systems)
T1 sequence: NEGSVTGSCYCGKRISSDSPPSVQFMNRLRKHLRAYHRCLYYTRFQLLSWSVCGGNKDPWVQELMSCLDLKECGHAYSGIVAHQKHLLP
Procedure: The binding characteristics of 25 CXCL16 antibodies were analyzed using the bio-light interferometry (ForteBio). All antibodies were diluted in freshly prepared running buffer. Antibodies were immobilized onto the surface of a series of biosensors using the capture methods at 0.3 μg/mL. Recombinant human CXCL16 (rhCXCL16) protein (100 nM) was passed over the surface to generate a binding response for 10 minutes. Binding data for the antibody and antigen interactions were collected at 25° C. on the biosensors. Then, the running buffer was passed for 10 minutes to dissociate them. The association constant (kₐ) and the dissociation constant (kₐ) were observed, and the equilibrium binding constant (KD) was calculated. […] R2: The value indicating how well the fit and experimental data correlate; X²: The measure of error between the experimental data and fitted line.

Binding result, no binding (tested: 100 nM rhCXCL16):
B1, B2, B3, B4, B5, B6, B7, B8, B9, B10, B11, B12, B13, B14, B15, B16, B17, B18, B19
